By half-life is commonly meant the time needed for the level to fall by half in the phase considered. The IC50 is the concentration that gives 50% inhibition. In general, Kd refers to the equilibrium constant for the complex coming apart. A higher Kd goes with a looser complex.

In one series the test system is tumours. The conditions noted are these: human, in vivo. The protocol:
The radiolabelling procedure used was as follows.
(§1) Pre-therapeutic positron emission tomography/computed tomography (PET/CT) imaging was carried out 1 hour and 3 hours post injection with the imaging agent. […] Patient 1 was then administered with the therapeutic agent. […] single-photon emission computed tomography (SPECT) imaging was then carried out 1.5 hours, 17 hours, 41 hours, 65 hours and 141 hours post injection with the therapeutic agent.
(§2) Patient 2 was then administered with the therapeutic agent. […] SPECT imaging was then carried out 4.5 hours, 20 hours, 45 hours, 67 hours and 141 hours post injection with the therapeutic agent.
(§3) PET/CT imaging was performed using a Siemens Biograph mCT Flow PET/CT. SPECT imaging was performed using a Siemens Intevo SPECT/CT.

The next series in a line: clinical. The conditions noted are these: for accumulation and retention in tumours (SPECT): up to 141 hours post injection. The protocol:
A dosimetry study was carried out using Compound 3 to investigate the suitability of the compounds described herein for use in imaging and radiotherapy.
The radiolabelling procedure used was as follows. Compound 3 was dissolved in ultrapure water (2 μg/μl) and 1.5 mL of 0.4 M sodium acetate buffer at pH 4.8 (8 mg/mL). Gentisic acid was added and the mixture was transferred to a ^177Lu V-vial. The vial was heated for 25 minutes at 95° C.
as §1, §2, §3

Another series concerns the target cMet receptor (Homo sapiens, UniProt P08581). Briefly: Competition binding assay by fluorescence polarisation (FP). The conditions noted are these: mean; competition FP vs Cy5-labelled probe 20 nM, cMet receptor 50 nM, PBS pH 7.4 with 0.01% Tween 20. The protocol:
The half maximal inhibitory concentration (IC50) and dissociation constant (Kd) values were determined by competition fluorescence polarisation (FP) assay for the binding of cMet binding cyclic peptide (unlabelled), cMet-DOTA (Compound 3) and cMet-DOTAGA (Compound 4) to cMet receptor.
The principle of the fluorescence polarisation method can briefly be described as follows:
Monochromatic light passes through a […] polarizing filter and excites fluorescent molecules in the sample. Only those molecules that are oriented properly in the vertically polarized plane adsorb light, become excited, and subsequently emit light. The emitted light is measured in both horizontal and vertical planes. The anisotropy value (A), is the ratio between the light intensities following the equation:
A=(Intensity with horizontal polarizer—Intensity with vertical polarizer)/(Intensity with horizontal polarizer+2* Intensity with vertical polarizer).
The fluorescence anisotropy measurements were performed in a 96-well flat bottom plate using a Molecular Devices M5 multi-mode plate reader.
The assay buffer used was phosphate-buffered saline (PBS), pH 7.4 with 0.01% Tween 20. […]
IC50 values were determined by data fitting with the following equation using KaleidaGraph v4.03: […]
Kd values were determined by data fitting with the following equation using KaleidaGraph v4.03: […]

The mark [1] stands for this setting: patient 1, 835 MBq, tumours (individual clusters).
[2] abbreviates: patient 2, 959 MBq, tumours (individual VOIs).

Molecules are shown by their SMILES. Several values for one entry are separate records, joined by “and”; a condition that tells them apart may be missing. Identical values can stand only once. Positions of bridges follow the written chain, without caps; N, C: chain ends. Residues, ends and D or L forms follow the SMILES beside them. *: point of attachment. DOTA = O=C(O)CN1CCN(CC(=O)O)CCN(CC(=O)*)CCN(CC(=O)O)CC1

Chain of cMet receptor (P08581 25-932 limits assumed): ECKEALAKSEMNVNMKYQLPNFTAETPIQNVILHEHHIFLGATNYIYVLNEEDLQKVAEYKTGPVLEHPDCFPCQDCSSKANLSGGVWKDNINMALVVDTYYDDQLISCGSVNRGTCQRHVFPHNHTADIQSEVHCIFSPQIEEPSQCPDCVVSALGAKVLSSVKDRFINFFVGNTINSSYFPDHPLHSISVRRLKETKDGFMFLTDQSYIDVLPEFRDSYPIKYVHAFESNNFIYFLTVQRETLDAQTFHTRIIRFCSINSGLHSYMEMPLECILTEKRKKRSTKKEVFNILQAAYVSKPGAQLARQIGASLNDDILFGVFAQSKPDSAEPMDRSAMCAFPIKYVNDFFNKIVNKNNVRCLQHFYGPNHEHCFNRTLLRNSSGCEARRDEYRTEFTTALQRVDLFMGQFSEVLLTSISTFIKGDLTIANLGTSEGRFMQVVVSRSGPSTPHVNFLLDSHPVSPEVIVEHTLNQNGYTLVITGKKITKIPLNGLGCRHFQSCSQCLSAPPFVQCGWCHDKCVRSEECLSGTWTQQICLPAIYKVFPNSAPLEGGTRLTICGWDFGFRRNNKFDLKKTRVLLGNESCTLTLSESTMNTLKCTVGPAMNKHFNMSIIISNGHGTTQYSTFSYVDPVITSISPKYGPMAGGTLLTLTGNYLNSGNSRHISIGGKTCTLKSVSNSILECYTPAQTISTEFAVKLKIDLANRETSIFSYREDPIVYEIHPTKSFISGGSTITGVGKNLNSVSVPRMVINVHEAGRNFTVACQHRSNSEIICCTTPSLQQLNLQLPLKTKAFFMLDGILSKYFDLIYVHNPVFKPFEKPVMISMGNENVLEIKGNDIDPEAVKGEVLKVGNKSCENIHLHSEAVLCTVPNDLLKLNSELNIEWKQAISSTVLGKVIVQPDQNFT

Consider `CC(=O)N[C@@H](C)C(=O)NCC(=O)N[C@@H](CO)C(=O)N[C@H]1CSSC[C@@H](C(=O)N[C@@H](Cc2ccc(O)cc2)C(=O)N[C@@H](CCC(=O)O)C(=O)N[C@H](C(=O)N[C@@H](CCC(=O)O)C(=O)NCC(=O)N[C@H](C(=O)NCC(=O)NCC(=O)NCC(=O)N[C@@H](CCCCNC(=O)CN2CCN(CC(=O)O)CCN(CC(=O)O)CCN(CC(=O)O)CC2)C(N)=O)[C@@H](C)O)[C@@H](C)O)NC(=O)[C@H](Cc2c[nH]c3ccccc23)NC(=O)[C@@H]2CSSC[C@H](NC(=O)[C@H](Cc3ccc(O)cc3)NC1=O)C(=O)N[C@@H](CO)C(=O)NCC(=O)N1CCC[C@H]1C(=O)N1CCC[C@H]1C(=O)N[C@@H](CCCNC(=N)N)C(=O)N[C@@H](Cc1ccccc1)C(=O)N[C@@H](CCC(=O)O)C(=O)N2` [^68Ga-Compound 3, metal not drawn] (Ac-AGSCYCSGPPRFECWCYETEGTGGGK(DOTA)-NH2; disulfide 4-16, 6-14), for which, in the series with tumours, the “accumulation in tumours (PET/CT)” value is reported as “accumulation”.

In the case of `CC(=O)N[C@@H](C)C(=O)NCC(=O)N[C@@H](CO)C(=O)N[C@H]1CSSC[C@@H](C(=O)N[C@@H](Cc2ccc(O)cc2)C(=O)N[C@@H](CCC(=O)O)C(=O)N[C@H](C(=O)N[C@@H](CCC(=O)O)C(=O)NCC(=O)N[C@H](C(=O)NCC(=O)NCC(=O)NCC(=O)N[C@@H](CCCCNC(=O)CN2CCN(CC(=O)O)CCN(CC(=O)O)CCN(CC(=O)O)CC2)C(N)=O)[C@@H](C)O)[C@@H](C)O)NC(=O)[C@H](Cc2c[nH]c3ccccc23)NC(=O)[C@@H]2CSSC[C@H](NC(=O)[C@H](Cc3ccc(O)cc3)NC1=O)C(=O)N[C@@H](CO)C(=O)NCC(=O)N1CCC[C@H]1C(=O)N1CCC[C@H]1C(=O)N[C@@H](CCCNC(=N)N)C(=O)N[C@@H](Cc1ccccc1)C(=O)N[C@@H](CCC(=O)O)C(=O)N2` [^177Lu-Compound 3, metal not drawn] (Ac-AGSCYCSGPPRFECWCYETEGTGGGK(DOTA)-NH2; disulfide 4-16, 6-14), the half-life in “clinical” (human, kidney (left), Half-life, patient 2, 959 MBq) is 37 h; in the series “clinical” (human, kidney (left), Halflife, patient 1, 835 MBq) it was 21 h; in “clinical” (human, kidney (right), Half-life, patient 2, 959 MBq), 40 h; in the series “clinical” (human, kidney (right), Halflife, patient 1, 835 MBq) it was 21 h; in the series “clinical” (human, liver, Half-life, patient 2, 959 MBq) it was 77 h; in the series “clinical” (human, liver, Halflife, patient 1, 835 MBq), 73 h. The half-life was 58 h in “clinical” (human, spleen, Half-life, patient 2, 959 MBq); 39 h in “clinical” (human, spleen, Halflife, patient 1, 835 MBq); 28 h in the series “clinical” (human, tumours (individual VOIs), Half-life, patient 2, 959 MBq); 42 h in “clinical” (human, tumours (individual clusters), Halflife, patient 1, 835 MBq); 27 h in “clinical” (setting [2]). The Dose was 1.04 Gy in “clinical” (patient 1, 835 MBq, kidney (left)); 1.02 Gy in “clinical” (patient 1, 835 MBq, kidney (right)); 0.4 Gy and 0.43 Gy and 0.36 Gy in the series “clinical” (setting [1]); 1.87 Gy in the series “clinical” (patient 2, 959 MBq, kidney (left), VOI 2466); 1.73 Gy in the series “clinical” (patient 2, 959 MBq, kidney (left), VOI K-l-iso (Isocont.)); 1.06 Gy in “clinical” (patient 2, 959 MBq, kidney (right), VOI 2548). Moreover, the Dose in the series “clinical” (setting [2]) is 0.08 Gy and 0.05 Gy and 0.04 Gy. Moreover, in “clinical” (setting [1]), the Halflife is 48 h and 32 h and 59 h. For the same molecule, the “accumulation and retention in tumours (SPECT)” value is “accumulation and retention” in “clinical” (patient 1, 835 MBq); “accumulation and retention” in the series “clinical” (patient 2, 959 MBq).

On cMet receptor, `CC(=O)N[C@@H](C)C(=O)NCC(=O)N[C@@H](CO)C(=O)N[C@H]1CSSC[C@@H](C(=O)N[C@@H](Cc2ccc(O)cc2)C(=O)N[C@@H](CCC(=O)O)C(=O)N[C@H](C(=O)N[C@@H](CCC(=O)O)C(=O)NCC(=O)N[C@H](C(=O)NCC(=O)NCC(=O)NCC(=O)N[C@@H](CCCCN)C(N)=O)[C@@H](C)O)[C@@H](C)O)NC(=O)[C@H](Cc2c[nH]c3ccccc23)NC(=O)[C@@H]2CSSC[C@H](NC(=O)[C@H](Cc3ccc(O)cc3)NC1=O)C(=O)N[C@@H](CO)C(=O)NCC(=O)N1CCC[C@H]1C(=O)N1CCC[C@H]1C(=O)N[C@@H](CCCNC(=N)N)C(=O)N[C@@H](Cc1ccccc1)C(=O)N[C@@H](CCC(=O)O)C(=O)N2` [cMet peptide (unlabelled)] (HELM PEPTIDE1{[ac].A.G.S.C.Y.C.S.G.P.P.R.F.E.C.W.C.Y.E.T.E.G.T.G.G.G.K.[am]}$PEPTIDE1,PEPTIDE1,5:R3-17:R3|PEPTIDE1,PEPTIDE1,7:R3-15:R3$$$V2.0) had an IC50 of 320 ± 37 nM and a Kd of 6.9 ± 0.8 nM.

Source of the values: patent US20220273830A1, “COMPOUNDS AND METHODS OF USE” (EDINBURGH MOLECULAR IMAGING LIMITED, priority 2019, published 2022).
